Assay results published in US20220016257A1 (Daiichi Sankyo, published 2022).

Legend:
[1] = target: T1, human CDH6 (full-length, on cells) (human, UniProt P55285 54-790); assay: competition flow cytometry on 786-O/hCDH6 cells, unlabeled antibody varied, competitor Alexa488-labeled NOV0712 at 5 nM [upper panel]
T1 construct: also called hCDH6; full-length hCDH6
T1 sequence: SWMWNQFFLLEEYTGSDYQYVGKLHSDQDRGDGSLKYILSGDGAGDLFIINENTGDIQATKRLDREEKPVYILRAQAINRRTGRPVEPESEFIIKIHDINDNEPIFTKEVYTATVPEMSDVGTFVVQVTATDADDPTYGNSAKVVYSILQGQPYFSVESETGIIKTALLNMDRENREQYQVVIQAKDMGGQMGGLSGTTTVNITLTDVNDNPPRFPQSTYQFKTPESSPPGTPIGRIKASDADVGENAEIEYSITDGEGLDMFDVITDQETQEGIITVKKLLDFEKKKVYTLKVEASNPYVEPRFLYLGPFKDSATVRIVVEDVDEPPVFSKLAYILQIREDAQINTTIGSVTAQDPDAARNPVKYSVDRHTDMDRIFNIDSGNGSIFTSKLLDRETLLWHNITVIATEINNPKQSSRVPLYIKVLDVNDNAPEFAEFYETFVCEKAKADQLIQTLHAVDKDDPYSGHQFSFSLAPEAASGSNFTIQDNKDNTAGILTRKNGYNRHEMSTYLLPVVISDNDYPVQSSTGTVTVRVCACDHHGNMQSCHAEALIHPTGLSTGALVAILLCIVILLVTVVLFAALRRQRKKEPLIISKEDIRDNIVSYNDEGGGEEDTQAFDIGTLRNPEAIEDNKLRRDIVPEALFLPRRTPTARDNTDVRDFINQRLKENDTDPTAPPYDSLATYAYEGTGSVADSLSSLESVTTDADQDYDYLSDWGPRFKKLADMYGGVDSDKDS
Description: The cell suspension of the 786-O/hCDH6 stably expressing cell line produced in 6)-2-2-1 was centrifuged, and the supernatant was then removed. Thereafter, the cells were suspended by the addition of labeled NOV0712 or labeled H01L02 (final concentration: 5 nM) and, further, the addition of each of the 4 humanized hG019 antibodies (clone Nos: H01L02, H02L02, H02L03 and H04L02), which had been prepared in Example 5)-5-3, or the anti-CDH6 antibody NOV0712, which had been prepared in Reference Example 1, or human IgG1 (Calbiochem) as a negative control (final concentration: as shown in the abscissa of FIG. 7). The cells were left standing at 4° C. for 1 hour. Thereafter, the cells were washed twice with PBS supplemented with 5% FBS, followed by detection using a flow cytometer (Canto II; BD Biosciences). The data was analyzed using FlowJo (TreeStar, Inc.). The abscissa depicts the final concentration of the added unlabeled antibody, and the ordinate depicts the amount of the antibody bound based on mean fluorescence intensity. When unlabeled NOV0712 is added to cells supplemented with labeled NOV0712, the amount of the labeled antibody bound is decreased by replacement with the unlabeled antibody in an addition concentration-dependent manner because they compete with each other for binding to the same epitope. […]

[2] = target: T2, EC5-deleted human CDH6 (EC5 deletion mutant, on cells) (human, UniProt P55285 54-790); assay: flow cytometry, 293α cells transiently expressing EC5-deleted hCDH6 (open) against untransfected cells (shaded), APC anti-human IgG F(ab')2
T2 construct: Full-length human CDH6 lacking EC5; Cloned in p3xFLAG-CMV-9; also called EC5-deleted hCDH6
T2 sequence: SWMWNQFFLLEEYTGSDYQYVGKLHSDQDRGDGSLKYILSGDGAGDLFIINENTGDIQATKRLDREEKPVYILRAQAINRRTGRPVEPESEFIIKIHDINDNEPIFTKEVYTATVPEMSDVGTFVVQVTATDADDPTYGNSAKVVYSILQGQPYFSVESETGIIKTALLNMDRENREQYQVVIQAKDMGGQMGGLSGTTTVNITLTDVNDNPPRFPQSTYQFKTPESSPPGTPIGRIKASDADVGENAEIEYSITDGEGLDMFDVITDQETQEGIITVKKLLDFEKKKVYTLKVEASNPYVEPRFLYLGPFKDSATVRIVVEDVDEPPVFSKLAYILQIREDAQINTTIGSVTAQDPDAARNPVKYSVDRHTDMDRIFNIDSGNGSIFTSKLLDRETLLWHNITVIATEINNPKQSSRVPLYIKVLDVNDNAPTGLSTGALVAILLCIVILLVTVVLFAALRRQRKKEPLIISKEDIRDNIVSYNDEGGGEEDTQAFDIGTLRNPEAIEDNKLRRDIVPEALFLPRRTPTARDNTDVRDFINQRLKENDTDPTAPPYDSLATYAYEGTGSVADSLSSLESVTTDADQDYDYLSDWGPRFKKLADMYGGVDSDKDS
Description: Thereafter, the cells were suspended by the addition of each of the 4 humanized hG019 antibodies (clone Nos: H01L02, H02L02, H02L03 and H04L02), which had been prepared in Example 5)-5-3, or the anti-CDH6 antibody NOV0712, which had been prepared in Reference Example 1, or human IgG1 (Calbiochem) as a negative control. The cells were left standing at 4° C. for 1 hour. The cells were washed twice with PBS supplemented with 5% FBS, and then suspended by the addition of APC-anti-human IgG goat F(ab′)2 (Jackson ImmunoResearch Laboratories, Inc.) that had been 500-fold diluted with PBS supplemented with 5% FBS. The cells were left standing at 4° C. for 1 hour. The cells were washed twice with PBS supplemented with 5% FBS, followed by detection using a flow cytometer (Canto II; BD Biosciences). The data was analyzed using FlowJo (TreeStar, Inc.). In the histograms of FIGS. 5-1 to 5-6, the abscissa depicts APC fluorescence intensity indicating the amount of the antibody bound, and the ordinate depicts cell count. […] Fluorescence intensity is enhanced when the antibody binds to full-length hCDH6 or each EC domain deletion mutant on the cell surface. The human IgG1 control binds to none of the transfected cells.

B1: anti-CDH6 antibody NOV0712 (antibody, V domains shown)
VH: QVQLLESGGGLVQPGGSLRLSCAASGFTFSSHGMHWVRQAPGKGLEWVSVISGSGSNTGYADSVKGRFTISRDNSKNTLYLQMNSLRAEDTAVYYCARQWGSYAFDSWGQGTLVTVSS
VL: DIQMTQSPSSLSASVGDRVTITCRASQSISSYLNWYQQKPGKAPKLLIYAVSTLQSGVPSRFSGSGSGTDFTLTISSLQPEDFATYYCQQSGTFPPTTFGQGTKVEIKR
- IC50 (read off the curve) [1]: ~4 nM
- binding result [2]: no binding (tested: not given)
